Like-named read-outs stand apart in the source and are kept apart here.
Assays:
Experiment in all cases: cell-based or functional assay
[1] = target: adiponectin receptor 1 (human) (UniProt Q96A54)
[2] = target: adiponectin receptor 2 (human) (UniProt Q86V24)
[3] = target: adiponectin receptor 1 (human) (UniProt Q96A54); remark: listed apart in the source
[4] = target: adiponectin receptor 2 (human) (UniProt Q86V24); remark: listed apart in the source

adiponectin receptor 2 (human), sequence (Q86V24 whole entry): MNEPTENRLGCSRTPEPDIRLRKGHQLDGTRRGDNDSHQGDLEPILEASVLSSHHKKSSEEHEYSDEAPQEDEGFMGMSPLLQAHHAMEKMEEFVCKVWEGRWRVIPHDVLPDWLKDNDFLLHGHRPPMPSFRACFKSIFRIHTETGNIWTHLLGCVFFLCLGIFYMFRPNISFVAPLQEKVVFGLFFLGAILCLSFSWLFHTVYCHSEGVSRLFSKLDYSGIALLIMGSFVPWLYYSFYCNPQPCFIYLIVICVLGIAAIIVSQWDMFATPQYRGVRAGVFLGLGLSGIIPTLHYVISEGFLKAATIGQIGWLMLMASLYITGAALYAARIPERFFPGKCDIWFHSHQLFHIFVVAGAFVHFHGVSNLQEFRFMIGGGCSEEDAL
adiponectin receptor 1 (human), sequence (Q96A54 whole entry): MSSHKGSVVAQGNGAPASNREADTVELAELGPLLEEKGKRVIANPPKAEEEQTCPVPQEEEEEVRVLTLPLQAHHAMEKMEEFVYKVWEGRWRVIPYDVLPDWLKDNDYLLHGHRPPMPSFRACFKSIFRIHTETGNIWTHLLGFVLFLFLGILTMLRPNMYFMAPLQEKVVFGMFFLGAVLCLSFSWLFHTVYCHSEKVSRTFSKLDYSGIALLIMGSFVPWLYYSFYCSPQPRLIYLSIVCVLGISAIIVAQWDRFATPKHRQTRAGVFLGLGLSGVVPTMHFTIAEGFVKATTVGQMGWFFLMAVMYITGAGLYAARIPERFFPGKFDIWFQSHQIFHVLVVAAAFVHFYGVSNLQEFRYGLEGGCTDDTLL

adiponectin (from UniProt Q15848 19-244) (ligand)
EC50 of inhibition of PBL transendothelial migration (static adhesion assay) [1]: 40 nM | EC50 of inhibition of PBL transendothelial migration (static adhesion assay) [2]: 40 nM | EC50 of inhibition of PBL transendothelial migration (static adhesion assay) [3]: 0.94 µg/mL | EC50 of inhibition of PBL transendothelial migration (static adhesion assay) [4]: 0.94 µg/mL

Reference: patent US20170151309A1
